Results on 2 substances are retold here after article doi:10.1101/580043.

For experiment [1], the target named is Recombinant full-length MBP-tagged DEPS-1 (C. elegans) (UniProt Q9N303). In words: MST.
The target in experiment [2] is MBP-tagged PRG-1 PIWI domain (C. elegans). In words: MST.

Sequence of MBP-tagged DEPS-1 N-terminal fragment (DEPS-1^frag1) (domain or fragment) (Q9N303 whole entry, the tested form may be a part): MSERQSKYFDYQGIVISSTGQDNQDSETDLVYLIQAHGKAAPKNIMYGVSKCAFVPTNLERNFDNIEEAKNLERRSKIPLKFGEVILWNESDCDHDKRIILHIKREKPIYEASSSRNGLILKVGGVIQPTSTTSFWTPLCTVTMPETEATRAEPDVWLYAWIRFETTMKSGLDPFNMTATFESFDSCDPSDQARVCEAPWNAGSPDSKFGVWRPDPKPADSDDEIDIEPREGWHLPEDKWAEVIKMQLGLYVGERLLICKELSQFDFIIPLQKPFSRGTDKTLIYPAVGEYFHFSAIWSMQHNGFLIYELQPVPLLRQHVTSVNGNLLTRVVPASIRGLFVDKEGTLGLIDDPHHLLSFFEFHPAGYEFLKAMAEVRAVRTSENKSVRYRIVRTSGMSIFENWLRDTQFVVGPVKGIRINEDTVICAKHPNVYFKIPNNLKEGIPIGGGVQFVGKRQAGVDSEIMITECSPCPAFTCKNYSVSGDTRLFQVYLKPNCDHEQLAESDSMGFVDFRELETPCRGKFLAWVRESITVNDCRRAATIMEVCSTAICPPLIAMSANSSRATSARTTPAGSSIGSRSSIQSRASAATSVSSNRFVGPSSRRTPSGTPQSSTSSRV
Sequence of Recombinant full-length MBP-tagged DEPS-1 (C. elegans) (Q9N303 whole entry, the tested form may be a part): as above

“MBP-tagged PRG-1 PIWI domain (domain or fragment)”: the Kd in experiment [1] came out at 349 nM.
For the substance “MBP-tagged DEPS-1 N-terminal fragment (DEPS-1^frag1) (domain or fragment)”, in experiment [2], the Kd turned out to be 151 nM.
